Data from article PMC9596277.

How the values were obtained:
[1] = biological target: commercially available palivizumab (Synagis) (human); assay: SPR; same set-up as the kinetic SPR (palivizumab captured on Protein A, FcγRIIIA injected); value told as steady state binding
[2] = biological target: afucosylated palivizumab glycoform monogalactosylated at the α3 antenna (G1(3)) (human); assay: SPR; Biacore T200, 25°C, PBS with 0.05% Tween 20 and 3.4 mM EDTA; palivizumab analogues captured on immobilised Protein A (CM-5); FcγRIIIA injected, single-cycle kinetics, 2.3 nM to 0.56 µM; 1:1 binding model, KD from the ratio of the rate constants; three repeats
Sequence of afucosylated palivizumab glycoform monogalactosylated at the α3 antenna (G1(3)) (human) (heavy, as listed by the source, chain 1 of 2): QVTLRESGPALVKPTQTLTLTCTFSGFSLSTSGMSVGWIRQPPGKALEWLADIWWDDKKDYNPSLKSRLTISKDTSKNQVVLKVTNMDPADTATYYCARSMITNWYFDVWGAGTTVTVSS
Sequence of afucosylated palivizumab glycoform monogalactosylated at the α3 antenna (G1(3)) (human) (light, as listed by the source, chain 2 of 2): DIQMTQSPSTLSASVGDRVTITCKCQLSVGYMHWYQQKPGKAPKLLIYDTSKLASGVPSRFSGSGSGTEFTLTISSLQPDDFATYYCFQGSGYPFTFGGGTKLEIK

[3] = biological target: afucosylated agalactosylated (G0) palivizumab glycoform (human); assay: as above
Sequence of afucosylated agalactosylated (G0) palivizumab glycoform (human) (heavy, as listed by the source, chain 1 of 2): as the sequence (heavy, as listed by the source, chain 1 of 2) above
Sequence of afucosylated agalactosylated (G0) palivizumab glycoform (human) (light, as listed by the source, chain 2 of 2): as the sequence (light, as listed by the source, chain 2 of 2) above

[4] = biological target: afucosylated palivizumab glycoform monogalactosylated at the α6 antenna (G1(6)) (human); assay: as above
Sequence of afucosylated palivizumab glycoform monogalactosylated at the α6 antenna (G1(6)) (human) (heavy, as listed by the source, chain 1 of 2): as the sequence (heavy, as listed by the source, chain 1 of 2) above
Sequence of afucosylated palivizumab glycoform monogalactosylated at the α6 antenna (G1(6)) (human) (light, as listed by the source, chain 2 of 2): as the sequence (light, as listed by the source, chain 2 of 2) above

[5] = biological target: digalactosylated afucosylated (G2) palivizumab glycoform (human); assay: as above
Sequence of digalactosylated afucosylated (G2) palivizumab glycoform (human) (heavy, as listed by the source, chain 1 of 2): as the sequence (heavy, as listed by the source, chain 1 of 2) above
Sequence of digalactosylated afucosylated (G2) palivizumab glycoform (human) (light, as listed by the source, chain 2 of 2): as the sequence (light, as listed by the source, chain 2 of 2) above

[6] = biological target: FcγRIIIa (CD16A) F176 on NK92-GFP-CD16A cells (F variant) (human) (UniProt P08637); assay: flow cytometry on cells; NK92-GFP-CD16A cells (V or F variant) with 2.5-fold serial dilutions of palivizumab glycoforms in 1% BSA/PBS, 4°C, 30 min; detected with Alexa Fluor 647 anti-human IgG F(ab')2-specific fragment; % GFP+AF647+ cells
[7] = biological target: FcγRIIIa (CD16A) V176 on NK92-GFP-CD16A cells (V variant) (human) (UniProt P08637)

Sequence of commercially available palivizumab (Synagis) (human) (heavy, as listed by the source, chain 1 of 2): as the sequence (heavy, as listed by the source, chain 1 of 2) above
Sequence of commercially available palivizumab (Synagis) (human) (light, as listed by the source, chain 2 of 2): as the sequence (light, as listed by the source, chain 2 of 2) above

Row | Kd [2] [nM] | Kd [3] [nM] | Kd [4] [nM] | Kd [5] [nM] | maximum percent of cells bound [6] [%] | Substance | ADCC reporter assay (Jurkat T-cell luciferase reporter cells, CD16A V variant; RSV-infected Hep2 cells), activity against the G0 glycoform [7] [fold] | other results
1 | 60 | 60 | 25 to 31 | 25.6 |  | FcγRIIIA CD16A low binding (F) variant, National Research Council (Canada) (from UniProt P08637 17-254) (receptor) |  | 
2 |  |  |  |  | 30 | afucosylated agalactosylated (G0) palivizumab glycoform (antibody) |  | 
3 |  |  |  |  | 30 | afucosylated palivizumab glycoform monogalactosylated at the α3 antenna (G1(3)) (antibody) |  | 

The remaining lines, values behind:

Row | Substance | Kd [2] [nM] | Kd [3] [nM] | Kd [4] [nM] | Kd [5] [nM] | maximum percent of cells bound [6] [%] | ADCC reporter assay (Jurkat T-cell luciferase reporter cells, CD16A V variant; RSV-infected Hep2 cells), activity against the G0 glycoform [7] [fold] | other results
4 | FcγRIIIA CD16A high binding (V) variant, National Research Council (Canada) (from UniProt P08637 17-254) (receptor) | 110 | 110 | 6 | 5.9 |  |  | Kd [1]: 1000 nM
5 | afucosylated palivizumab glycoform monogalactosylated at the α6 antenna (G1(6)) (antibody) |  |  |  |  |  | 2 | 
6 | digalactosylated afucosylated (G2) palivizumab glycoform (antibody) |  |  |  |  |  | 2 | 
